This is an account of results in article PMC10051649, “Suramin Disturbs the Association of the N-Terminal Domain of SARS-CoV-2 Nucleocapsid Protein with RNA”.

For the series, the target named is SARS-CoV-2 nucleocapsid N-terminal domain (N-NTD) (SARS-CoV-2, UniProt P0DTC9 44-180). The series is described as follows: BLI. The conditions noted are these: protein: recombinant; tags: 6xHis-SUMO removed by SUMO protease; biotinylated for BLI; 15N-labeled for NMR; single strand.

B1: ssRNA-16 (ssRNA)
RNA: AUAUGGAAGAGCCCUA
Regarding B1, the dissociation constant (Kd) (commonly a measure of binding affinity in units of concentration) is 8.37 µM.
